US20250340654A1 (INTERVET, published 2025)
Substitutions are numbered along the chain they refer to. Values belong to the binder of their own block, whether it stands above or below them.

Key:
Canine IL-31RA ECD-10His [1] = molecular target: T1, Canine IL-31RA ECD-10His (canine, biotin-labeled in the Octet assay (site not stated)); test: BLI (Octet), biotin-labeled canine IL-31RA on SA biosensors
T1 construct: The ELISA and Octet protocols say only 'IL-31RA' or 'canine IL-31RA'; also called cIL-31RA; canine IL-31 receptor alpha extracellular domain, HIS-tagged
T1 chain: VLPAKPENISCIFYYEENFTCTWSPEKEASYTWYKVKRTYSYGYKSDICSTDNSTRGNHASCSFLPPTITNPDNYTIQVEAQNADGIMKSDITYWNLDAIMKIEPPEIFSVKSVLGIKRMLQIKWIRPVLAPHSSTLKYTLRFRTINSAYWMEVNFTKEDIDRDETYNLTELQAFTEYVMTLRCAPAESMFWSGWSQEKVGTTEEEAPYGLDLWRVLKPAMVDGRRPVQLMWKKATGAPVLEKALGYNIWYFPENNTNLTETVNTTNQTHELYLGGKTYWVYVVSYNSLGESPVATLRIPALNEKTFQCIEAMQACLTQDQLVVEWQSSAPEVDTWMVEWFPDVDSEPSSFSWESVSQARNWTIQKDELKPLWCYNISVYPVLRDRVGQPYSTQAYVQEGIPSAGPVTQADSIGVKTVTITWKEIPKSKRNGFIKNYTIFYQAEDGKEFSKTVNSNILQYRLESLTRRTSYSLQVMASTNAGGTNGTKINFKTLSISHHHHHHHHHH
Description: (§1) All kinetics measurements were performed by Octet HTX using SA biosensors and Data Acquisition 12.0 software. A biotin-labeled antigen (canine IL-31RA) was loaded onto the pre-rehydrated SA biosensors for 120s at a concentration of 1 μg/mL. Next, the biosensors were placed into Octet Kinetics Buffer (PBS+0.02% Tween 20, 0.1% BSA) for the blocking phase for 120s. Then, for the association phase, antigen loaded biosensors were placed into 2-fold serial dilutions from 100 nM down to 3.13 nM of anti-IL-31RA monoclonal antibody in Octet Kinetics Buffer for 300s. The last well was buffer alone and that sensor was used for reference sensor subtraction. Finally, the biosensors were placed into Octet Kinetics Buffer for the dissociation phase for 300s. Analysis was performed using Data Analysis 12.0 software and curves were fitted using a 1:1 binding model.
Two of the top blocking antibodies: 51F8 and 218D9, had KDs of about 0.2 nM and about 0.07 nM respectively (see, Table 5B below).

Canine IL-31RA ECD-10His [2] = molecular target: T1, Canine IL-31RA ECD-10His; test: ELISA on coated canine IL-31RA, anti-canine IgG Fc-HRP (Example 11), the unit is that of the x axis 'Ab Log Conc. (ng/mL)'
Description: 1. Coat 200 ng/well of IL-31RA on an immunoplate and incubate the plate at 4° C. overnight. [0257] 2. Wash the plate 3 times with phosphate buffered saline (PBS) containing 0.05% Tween 20 (PBST). […] 3. Block the plate with 0.5% bovine serum albumin (BSA) in PBS for 45-60 min at room temperature. [0259] 4. Wash the plate 3 times with PBST. [0260] 5. Three-fold dilute the caninized antibody in each column or row of dilution plate starting at 0.3 μg/mL. [0261] 6. Transfer the diluted caninized antibody into each column or row of the immunoplate, and incubate the plate for 45-60 min at room temperature. [0262] 7. Wash the plate 3 times with PBST. [0263] 8. Add 1:4000 diluted horseradish peroxidase labeled anti-canine IgG Fc into each well of the plate, and then incubate the plate for 45-60 min at room temperature. [0264] 9. Wash the plate 3 times with PBST. [0265] 10. Add 3,3′,5,5′-tetramethylbenzidine (TMB) Substrate into each well of the plate, and incubate the plate for 10 to 15 min at room temperature to develop the color. [0266] 11. Add 100 μL 1.5 M phosphoric acid into each well to stop the reaction. Read plate at 450 nm with 540 nm reference wavelength.
As depicted in FIGS. 7A-7E, the caninized antibodies were tested for their reactivity to canine IL-31RA.

[3] = molecular target: T2, canine IL-31 receptor complex (IL-31RA and OSMR) on Ba/f3-OI cells (canine); test: cell-based or functional assay
[4] = molecular target: T2, canine IL-31 receptor complex (IL-31RA …); test: cell-based or functional assay; remark: listed apart in the source
[5] = molecular target: T2, canine IL-31 receptor complex (IL-31RA …); test: cell-based or functional assay; remark: listed apart in the source
Canine IL-31RA ECD-10His [6] = molecular target: T1, Canine IL-31RA ECD-10His; test: BLI (Octet HTX), biotin-labeled canine IL-31RA on SA biosensors, 1:1 fit
Description: These constants reflect the binding affinity of the individual monoclonal antibodies for canine IL-31 RA.
as §1

Canine IL-31RA ECD-10His [7] = molecular target: T1, Canine IL-31RA ECD-10His; test: BLI (Octet); end of the range tied to 85C10 by Table 2
Description: as §1

Canine IL-31RA ECD-10His [8] = molecular target: T1, Canine IL-31RA ECD-10His; test: BLI (Octet); end of the range tied to 224G3 by Table 2
Description: as §1

B2: c218D9VH3VL2 (antibody, V domains shown)
VH: EVTLQESGPGLVKPSQTLSLTCSFSGFSLSTFGRGVGWIRQRPGRGLEWMGHIWWDDDKYYNPALKSRLSITKDTAKNQFSLQLSSMTTEDTAVYYCARIAGGLRRAPYAMDSWGQGTLVTVSS
VL: DIVMTQTPLSLSVSPGETASISCRASENIYSSLAWFRQKPGQSPQLLIYAATNLADGVPDRFSGSGSGTDFTLRISRVEADDTGVYYCQHFRDTPPTFGQGTKLEIKR
notes: Caninized antibody; chains tied by name to c218D9VH3-cIgGBm and c218D9VL2-cCK; also called c218D9VH3L2
IC50, inhibition of IL-31 mediated STAT-3 phosphorylation in Ba/f3-OI cells [3]: ~230 nM
IC50: inhibition of IL-31 mediated STAT-3 phosphorylation in Ba/f3-OI cells (AlphaLISA p-STAT3), the unit is that of the x axis 'Antibody Log Conc. (nM)' [4]: 226 nM
Kd (Canine IL-31RA ECD-10His [1]): 0.528 nM
koff (Canine IL-31RA ECD-10His [1]): 0.000338 s⁻¹
kon (Canine IL-31RA ECD-10His [1]): 641000 M⁻¹ s⁻¹
EC50 (Canine IL-31RA ECD-10His [2]): 4.29 ng/mL

B6: 209G5 (antibody, V domains shown)
VH: EVQLQQSVAELVRPGASVKLSCTASGFNIKNTYMHWVKERPEQGLEWIGRIDPANGNSKYAPKFQGKATITTDTSSNTAYLQLSSLTSEDTAIYYCARYYYVSSHFDVWGTGTTVTVSS
VL: SIVMTQTPKFLLVSAGDRVTITCKASQSVTNDVTWYQQKPGQSPKLLIYYASNRYTGVPDRFTGSGYGTDFTFTISTVQAEDLAVYFCQQDYSSPFTFGSGTKLEIK
notes: Mouse monoclonal antibody from a hybridoma; also called mouse mAb 209G5
IC50 (read off the curve): inhibition of IL-31 mediated STAT-3 phosphorylation in Ba/f3-OI cells [5]: ~2 µg/mL
Kd (Canine IL-31RA ECD-10His [6]): 0.131 nM
koff (Canine IL-31RA ECD-10His [6]): 4.87e-05 s⁻¹
kon (Canine IL-31RA ECD-10His [6]): 370000 M⁻¹ s⁻¹

B7: 85C10 (antibody, V domains shown)
VH: EFQLQQSGPELVKPGASVKISCKASGYSFTDYSINWVKQSNGKSLEWIGVINPNYGTSSHNQKFKGKATMTVDQSSSTAYMQLNSLTSEDSAVYYCARALDDYYFYWYFDVWGIGTTVTVSS
VL: DVVMTQTPLSLPVSLGDQASISCRSSQSLVHTNGNTYLHWYLQKPGQSPKLLIYKVSNRFSGVPDRFSGSGSGTDFTLKISRVEAEDLGVYFCSQTTHVPLTFGAGTKLELK
notes: Mouse monoclonal antibody from a hybridoma; also called mouse mAb 85C10
Kd (Canine IL-31RA ECD-10His [7]): 0.85 nM
Kd (Canine IL-31RA ECD-10His [6]): 0.851 nM
koff (Canine IL-31RA ECD-10His [6]): 0.000363 s⁻¹
kon (Canine IL-31RA ECD-10His [6]): 427000 M⁻¹ s⁻¹

B8: Chimeric 218D9 (antibody, V domains shown)
VH: QVTLKESGPGILQPSQTLSLTCSFSGFSLSTFGRGVGWIRQPSGKGLDWLTHIWWDDDKYYNPALKSRLTISKDTSKNQVFLKIANVDTADTATYYCARIAGGLRRAPYAMDSWGQGTSVTVSS
VL: DIQMTQSPASLSVSVGETVTITCRASENIYSSLAWYQQKQGKSPQLLVYAATNLADGVPSRFSGSGSGTQYSLKINSLQSEDSGNYYCQHFRDTPPTFGGGTKLEIK
notes: canine constant regions not specified; also called mouse-canine chimeric 218D9 antibody
IC50, inhibition of IL-31 mediated STAT-3 phosphorylation in Ba/f3-OI cells [3]: ~2.2 nM
IC50: inhibition of IL-31 mediated STAT-3 phosphorylation in Ba/f3-OI cells (AlphaLISA p-STAT3), the unit is that of the x axis 'Antibody Log Conc. (nM)' [4]: 2.24 nM
Kd (Canine IL-31RA ECD-10His [1]): 0.0698 nM
koff (Canine IL-31RA ECD-10His [1]): 4.63e-05 s⁻¹
kon (Canine IL-31RA ECD-10His [1]): 664000 M⁻¹ s⁻¹
EC50 (Canine IL-31RA ECD-10His [2]): 3.15 ng/mL

B9: 218D9 (antibody, V domains shown)
VH: B8 VH
VL: B8 VL
notes: Mouse monoclonal antibody from a hybridoma; also called mouse mAb 218D9
IC50 (read off the curve): inhibition of IL-31 mediated STAT-3 phosphorylation in Ba/f3-OI cells [5]: ~2 µg/mL
Kd (Canine IL-31RA ECD-10His [6]): 0.0698 nM
koff (Canine IL-31RA ECD-10His [6]): 4.63e-05 s⁻¹
kon (Canine IL-31RA ECD-10His [6]): 664000 M⁻¹ s⁻¹

B10: 224G3 (antibody, V domains shown)
VH: EVQLVESGGDLVKPGGSLKLSCAASGFTFSSYGMSWVRQTPDKRLEWVATISNGGSYTYYPDSVKGRFTISRDNAKNTLYMQMSSLKSEDTAMYYCARNEPPDYWGQGTSVTVSS
VL: QIVLTQSPAIMSASLGERVTMTCTASSSVGSSYLHWYQQKPGSSPKLWIYDTSNLASGVPVRFSGSGSGTSYSLTISSMEAEDAATYYCHQYHRSPYTFGGGTKLEIK
notes: Mouse monoclonal antibody from a hybridoma; also called mouse mAb 224G3
Kd (Canine IL-31RA ECD-10His [8]): 1 pM
Kd (Canine IL-31RA ECD-10His [6]): 0.000964 nM
koff (Canine IL-31RA ECD-10His [6]): 1.08e-06 s⁻¹
kon (Canine IL-31RA ECD-10His [6]): 1.12e+06 M⁻¹ s⁻¹

Next, values leading:

Kd (Canine IL-31RA ECD-10His [1]): 1.23 nM
koff (Canine IL-31RA ECD-10His [1]): 0.000512 s⁻¹
kon (Canine IL-31RA ECD-10His [1]): 416000 M⁻¹ s⁻¹
EC50 (Canine IL-31RA ECD-10His [2]): 11.3 ng/mL
B1: c51F8VH4VL7 (antibody, V domains shown)
VH: EVQLVQSGAEVVKPGASVKVSCTASGFNIKNTFIHWVRQRPGAGLDWIGRIDPANGNTKYAPKFQGRATLTADTSTNTAYMQLSSLRAGDIAVYYCARYYYVSSYFDVWGTGTLVTVSS
VL: DIVMTQTPLSLSVSPGETASISCKASQSVTNDVTWFRQKPGQSPKLLIYSASNRYTGVPDRFSGSGSGTDFTLRISTVEADDTGVYYCQQDYSSPWTFGQGTKLEIKR
notes: Caninized antibody; chains tied by name to c51F8VH4-cIgGBm and c51F8VL7-cCK; also called c51F8VH4L7

IC50, inhibition of IL-31 mediated STAT-3 phosphorylation in Ba/f3-OI cells [3]: ~2.9 nM
IC50: inhibition of IL-31 mediated STAT-3 phosphorylation in Ba/f3-OI cells (AlphaLISA p-STAT3), the unit is that of the x axis 'Antibody Log Conc. (nM)' [4]: 2.5 nM
Kd (Canine IL-31RA ECD-10His [1]): 0.0447 nM
koff (Canine IL-31RA ECD-10His [1]): 2.69e-05 s⁻¹
kon (Canine IL-31RA ECD-10His [1]): 601000 M⁻¹ s⁻¹
EC50 (Canine IL-31RA ECD-10His [2]): 3.58 ng/mL
B3: c218D9VH4VL3 (antibody, V domains shown)
VH: B2 VH with F80V, S81F
VL: B2 VL with I48V, F71Y
notes: Caninized antibody; chains tied by name to c218D9VH4-cIgGBm and c218D9VL3-cCK; also called c218D9VH4L3

IC50, inhibition of IL-31 mediated STAT-3 phosphorylation in Ba/f3-OI cells [3]: ~8.3 nM
IC50: inhibition of IL-31 mediated STAT-3 phosphorylation in Ba/f3-OI cells (AlphaLISA p-STAT3), the unit is that of the x axis 'Antibody Log Conc. (nM)' [4]: 8.27 nM
Kd (Canine IL-31RA ECD-10His [1]): 0.305 nM
koff (Canine IL-31RA ECD-10His [1]): 0.000165 s⁻¹
kon (Canine IL-31RA ECD-10His [1]): 541000 M⁻¹ s⁻¹
EC50 (Canine IL-31RA ECD-10His [2]): 4.1 ng/mL
B4: c218D9VH4VL2 (antibody, V domains shown)
VH: B2 VH with F80V, S81F
VL: B2 VL
notes: Caninized antibody; chains tied by name to c218D9VH4-cIgGBm and c218D9VL2-cCK; also called c218D9VH4L2

IC50, inhibition of IL-31 mediated STAT-3 phosphorylation in Ba/f3-OI cells [3]: ~2.5 nM
IC50: inhibition of IL-31 mediated STAT-3 phosphorylation in Ba/f3-OI cells (AlphaLISA p-STAT3), the unit is that of the x axis 'Antibody Log Conc. (nM)' [4]: 2.97 nM
Kd (Canine IL-31RA ECD-10His [1]): 0.0416 nM
koff (Canine IL-31RA ECD-10His [1]): 2.75e-05 s⁻¹
kon (Canine IL-31RA ECD-10His [1]): 661000 M⁻¹ s⁻¹
EC50 (Canine IL-31RA ECD-10His [2]): 3.22 ng/mL
B5: c218D9VH3VL3 (antibody, V domains shown)
VH: B2 VH
VL: B2 VL with I48V, F71Y
notes: Caninized antibody; chains tied by name to c218D9VH3-cIgGBm and c218D9VL3-cCK; also called c218D9VH3L3
